Square brackets hold non-standard residues; d marks the D form. Peptide text beside a SMILES is read from it. * marks the point of attachment. Sta = CC(C)C[C@H](N)[C@@H](O)CC(=O)O; Isovaleryl = CC(C)CC(=O)*
B1: neprosin: 29 kDa prolyl endoprotease isolated from Nepenthes pitcher fluid (fraction 2), SEQ ID NO.: 1 (protein)
chain: MQAKFFTFVILSSVFYFNYPLAEARSIQARLANKPKGTIKTIKGDDGEVVDCVDIYKQPAFDHPLLKNHTLQMQPSSYASKVGEYNKLEQPWHKNGECPKGSIPIRRQVITGLPVVKKQFPNLKFAPPSANTNHQYAVIAYFYGNASLQGANATINIWEPNLKNPNGDFSLTQIWISAGSGSSLNTIEAGWQVYPGRTGDSQPRFFIYWTADGYTSTGCYDLTCPGFVQTNNYYAIGMALQPSVYGGQQYELNESIQRDPATGNWWLYLWGTVVGYWPASIYNSITNGADTVEWGGEIYDSSGTGGFHTTTQMGSGHFPTEGYGKASYVRDLQCVDTYGNVISPTANSFQGIAPAPNCYNYQFQQGSSELYLFYGGPGCQ
B2: recombinant nepenthesin I: recombinant aspartic protease of Nepenthes, SEQ ID NO.: 21 (protein)
chain: NGPSGVETSVYAGDGEYLMNLSIGTPAQPFSAIMDTGSDLIWTQCQPCTQCFNQSTPIFNPQGSSSFSTLPCSSQLCQALSSPTCSNNFCQYTYGYGDGSETQGSMGTETLTFGSVSIPNITFGCGENNQGFGQGNGAGLVGMGRGPLSLPSQLDVTKFSYCMTPIGSSTPSNLLLGSLANSVTAGSPNTTLIQSSQIPTFYYITLNGLSVGSTRLPIDPSAFALNSNNGTGGIIIDSGTTLTYFVNNAYQSVRQEFISQINLPVVNGSSSGFDLCFQTPSDPSNLQIPTFVMHFDGGDLELPSENYFISPSNGLICLAMGSSSQGMSIFGNIQQQNMLVVYDTGNSVVSFASAQCGAS
B3: recombinant nepenthesin II: recombinant aspartic protease of Nepenthes, SEQ ID NO.: 20 (protein)
chain: QSSSGIETPVYAGDGEYLMNVAIGTPDSSFSAIMDTGSDLIWTQCEPCTQCFSQPTPIFNPQDSSSFSTLPCESQYCQDLPSETCNNNECQYTYGYGDGSTTQGYMATETFTFETSSVPNIAFGCGEDNQGFGQGNGAGLIGMGWGPLSLPSQLGVGQFSYCMTSYGSSSPSTLALGSAASGVPEGSPSTTLIHSSLNPTYYYITLQGITVGGDNLGIPSSTFQLQDDGTGGMIIDSGTTLTYLPQDAYNAVAQAFTDQINLPTVDESSSGLSTCFQQPSDGSTVQVPEISMQFDGGVLNLGEQNILISPAEGVICLAMGSSSQLGISIFGNIQQQETQVLYDLQNLAVSFVPTQCGAS

Columns and labels:
Nepenthes enzymes = assay: enzyme inhibition testing, BSA digestion by Nepenthes enzymes, SDS-PAGE; format: biochemical; details: BSA 1 mg/ml, 0.12 μM Nepenthes enzymes, 15 min at 37° C.; inhibitors at 1 mM
Experimental: Inhibitors: PMSF (phenylmethylsulfonyl fluoride), P (pepstatin), L (leupeptin), E (EDTA and EGTA), DTT (dithiothreitol), ZPP (Z-Pro-Pro-aldehyde-dimethyl acetal). All inhibitor concentrations at 1 mM except where noted. Extract: fluid protein extract, M: lane markers. For enzyme inhibition testing, bovine serum albumin (1 mg/ml) was digested with 0.12 μM Nepenthes enzymes for 15 min at 37° C., quenched by brief boiling and then analyzed by 10% SDS-PAGE. The enzymes were pretreated with controls and inhibitors at 4° C. for 2 days prior to digestion experiments. PMSF, pepstatin, leupeptin, EDTA, EGTA, DTT from Sigma-Aldrich, and ZPP (Z-Pro-Pro-aldehyde-dimethyl acetal) from Bachem.

protein standards = assay: cleavage preferences on protein standards, LC-MS/MS; format: biochemical
Experimental: C-terminal cleavage preferences (P1 position) as a function of storage time at elevated temperature. Fluid concentrate was incubated at 37° C. for 0-7 days. […] Data were collected from 2-minute in-solution digestions of protein standards at 37° C. (pH 2.5), and cleavage preferences were determined using LC-MS/MS methods. For each amino acid, cleavage preferences were estimated by calculating the number observed terminal residues relative to the total number of residues, in percent.
Data were generated and collected as described for FIG. 1A.
Data are shown as relative % cleavage to the total, as defined above, using LC-MS/MS data from a set of protein standards. Samples were digested in solution for 5 minutes at 37° C. in this comparison, for all three enzyme preparations.
Data are provided as described for FIG. 1C.
Data was generated using HCD fragmentation on an LC-Orbitrap Velos instrument, and data searched against the sequence of APLF in Mass Spec Studio assuming no enzyme specificity, and results were cut off at a peptide false discovery rate (FDR) of 0.5%. Figure discloses SEQ ID NO: 87.

crude gliadin = assay: SDS-PAGE and proteomic LC-MS/MS analysis of crude gliadin digests; format: biochemical, Triticum aestivum; details: crude gliadin slurry digested with purified neprosin alone
Experimental: Digestions at pH 2.5 and 37° C., for 90 min. All concentrations in μM. M: Molecular weight markers, and gliadin: total crude gliadin in the absence of protease. […] Peptide data from LC-MS/MS runs, with intensities obtained using Protein Deconvolution 1.0. […] A stock gliadin slurry of 20-50 mg/ml was prepared in acidic solution (100 mM glycine HCl, pH 2.5) and briefly sonicated to further break up large particulates and promote suspension. Digestions of 10 mg/mL gliadin slurries were initiated by addition of enzyme (pepsin, fluid enzymes or both) and held at 37° C. with gentle rotation. Digest progress was monitored by gravimetric analysis, optical transmission, SDS-PAGE and mass spectrometry. For gravimetric analysis, digests were quenched by boiling and treated with TCA/chloroform, followed by centrifugation to recover undigested or poorly digested protein. For monitoring with optical transmission, digestion reactions were conducted in 96-well plate with ≥3 replicates of each reaction condition, and turbidity monitored at 595 nm at 37° C. every 2 minutes, for 90 minutes (SpectraMax plate reader, Molecular Devices). The plate was shaken at medium speed briefly between measurements. The digests were quenched after 90 min reaction by boiling for 10 minutes (confirmed to have no impact on digestion profile, a posteriori). An aliquot of the reaction mixture was analyzed on an 8% SDS-PAGE gel. The remaining amount was centrifuged and the supernatant was analyzed by mass spectrometry. Supernatant was analyzed by data-dependent LC-MS/MS, in two 1-hour reversed phase gradient runs, configured for top-10 ion selection using CID in a high/low configuration. In one run, ion selection was restricted to 2+ and higher charge states. In the other run, ion selection was applied to 1+ charge states only. Data from both runs were combined and searched against all UniprotKB/Swiss-Prot entries for gliadin and glutenin from Triticum aestivum (25 proteins), using Mascot v2.3, configured for non-specific digestions and filtered for peptide hits with p<0.05. For estimation of peptide size distribution, all LC-MS spectra were combined and deconvoluted in Protein Deconvolution v1.0, with appropriate settings. For label-free quantitative analysis using the subset of the digest identified in the database search, the hit list was combined with the raw data in Mass Spec Studio and used to generate a set of peptide ion chromatograms, integrated over all isotopes to determine a weight-average intensity for each peptide sequence identified.

NOD DQ8 mice = assay: transgenic NOD/HLA-DQ8 mouse model of gliadin sensitivity

Molecule	suppression of enzyme activity by proteolytic inhibitors (Nepenthes enzymes)	C-terminal (P1) cleavage specificity (protein standards)	weighted average peptide length for the low molecular weight fraction (crude gliadin)	small intestinal CD3+ intraepithelial lymphocyte (IEL) counts (NOD DQ8 mice; gliadin codigested with pepsin 100:1 and fluid enzyme 264:1 or nepenthesin II 100:1, pepsin alone is positive control)	tolerability (NOD DQ8 mice; sensitized mice challenged three times per week for three weeks with 5 mg treated gliadin)
CC(C)CC(=O)N[C@H](C(=O)N[C@H](C(=O)N[C@@H](CC(C)C)[C@@H](O)CC(=O)N[C@@H](C)C(=O)N[C@@H](CC(C)C)[C@@H](O)CC(=O)O)C(C)C)C(C)C [Pepstatin, pepstatin] (Isovaleryl-VV[Sta]A[Sta]-OH)	could only partially suppress enzyme activity				
B1		dominant Pro-X cleavage specificity	12.5		
B2		absence of C-terminal proline (P) cleavage			
B3		absence of C-terminal proline (P) cleavage		significant reductions in IEL counts, to levels indistinguishable from the gliadin-free diet control	well tolerated

Source: US10857214B2, “Compositions and methods for treating gluten intolerance and disorders arising therefrom” (Codexis, Inc., priority 2015, dated 2020)
